We go through 18 substances from US11759508B2, “Antigenic peptides for treatment of B-cell malignancy” (ENTEROME S.A., priority 2019, dated 2023).

The target in this experiment is T1, HLA-A*0201 (Homo sapiens, UniProt P04439, D140Y/D185E/D98H/E176V/E277Q/G131W/G231S/I119V/I121R/I166T/I218V/L300P/L318F/N151K/N90K/P208A/P217A/Q86G/Q94H/R138H/R169H/T345S).
T1 construct: human tumoral cell T2 which expresses the HLA-A*0201 molecule; endogenous in cells; host or cells: T2 cells (human, TAP1/2 negative)
Description: Affinity of the peptide to T2 cell line (HLA-A*0201 expression, FACS, relative to HIV pol 589-597). It counts as binding. To be noted: for Concentration of peptide that induces 20% of HLA-A2 expression: T2 cells, peptide 100-0.1 μM, 16 h, 37° C., anti-HLA-A2 FACS; for mean relative fluorescence intensity of T2 cells: normalized to HIV peptide = 100. From the text:
The experimental protocol is similar to the one that was validated for peptides presented by the HLA-A*0201 (Tourdot et al., A general strategy to enhance immunogenicity of low-affinity HLA-A2.1-associated peptides: implication in the identification of cryptic tumor epitopes. Eur J Immunol. 2000 December; 30(12):3411-21). Affinity measurement of the peptides is achieved with the human tumoral cell T2 which expresses the HLA-A*0201 molecule, but which is TAP ½ negative and incapable of presenting endogenous peptides.
T2 cells (5.104 cells per well) are incubated with decreasing concentrations of peptides from 100 μM to 0.1 μM (4 points: 100 μM, 10 μM, 1 μM, 0.1 μM) in serum-free medium (TexMacs) supplemented with […] of β2 Microglobulin at 37° C. for 16 hours. Cells are then washed two times and marked with the anti-HLA-A2 antibody coupled to PE (clone BB7.2, BD Pharmagen).
The analysis is achieved by FACS (Macsquant analyzer 10-Miltenyi).
For each peptide concentration, the geometric mean of the labelling associated with the peptide of interest is subtracted from background noise and reported as a percentage of the geometric mean of the […] labelling obtained for the reference peptide HIV pol 589-597 at a concentration of 100 μM. […] A2. Solubilisation of Peptides
T2 cells (5.104 cells per well) are incubated with decreasing concentrations of peptides from 100 μM to 0.1 μM (4 points: 100 μM, 10 μM, 1 μM, 0.1 μM) in serum-free medium (TexMacs) supplemented with 100 ng/μl of 32 Microglobulin at 37° C. for 16 hours. Cells are then washed two times and marked with the anti-HLA-A2 antibody coupled to PE (clone BB7.2, BD Pharmagen).
For each peptide concentration, the geometric mean of the labelling associated with the peptide of interest is subtracted from background noise and reported as a percentage of the geometric mean of the […] labelling obtained for the reference peptide HIV pol 589-597 at a concentration of 100 μM.

Consider YILGGLLMV [MS4A1-B12], for which the “Concentration of peptide that induces 20% of HLA-A2 expression” value was 31.20 µM.
Take YLFLGILSL [MS4A1-B5]: the “Concentration of peptide that induces 20% of HLA-A2 expression” value was determined as 6.77 µM.
Still for that read-out and setting: the figure for “WVFEHPETL (listed as Homo sapiens) [CD22-H1, reference compound]” is 1.97 µM.
As for SLVGILHII [CD19-B11], the “Concentration of peptide that induces 20% of HLA-A2 expression” value was 5.97 µM.
ILIPAGIYL [MS4A1-B3]: the “Concentration of peptide that induces 20% of HLA-A2 expression” value turned out to be 0.70 µM.
As to “IMNSLSLFA (listed as Homo sapiens) [MS4A1-H4, reference compound]”, the “Concentration of peptide that induces 20% of HLA-A2 expression” value was above 100 µM.
For the substance YLAYLIFEL [CD19-B6], the “Concentration of peptide that induces 20% of HLA-A2 expression” value amounted to 3.76 µM.
Take FMPGLLFGA [TNFRSF13C-B33]: the “Concentration of peptide that induces 20% of HLA-A2 expression” value was determined as 13.20 µM.
In the case of “LLFGAPALL (listed as Homo sapiens) [TNFRSF13C-H1, reference compound]”, the “Concentration of peptide that induces 20% of HLA-A2 expression” value came out at 11.76 µM.
“TLAYLIFCL (listed as Homo sapiens) [CD19-H6, reference compound]”: the “Concentration of peptide that induces 20% of HLA-A2 expression” value came out at 4.98 µM.
As to ILPGLLFGL [TNFRSF13C-B31], the “Concentration of peptide that induces 20% of HLA-A2 expression” value is 1.60 µM.
“GLAFVPLQI (listed as Homo sapiens) [CD37-H1, reference compound]”: the “Concentration of peptide that induces 20% of HLA-A2 expression” value is 7.35 µM.
For MS4A1-B41 (ILNSLSLLL), the “Concentration of peptide that induces 20% of HLA-A2 expression” value is 2.45 µM.
As to LQMGGFYLL [CD19-B7], the “Concentration of peptide that induces 20% of HLA-A2 expression” value was found to be 49.63 µM.
As for GMAFVPLLL [CD37-B11], the “Concentration of peptide that induces 20% of HLA-A2 expression” value worked out at 2.30 µM.
With “LMIPAGIYA (listed as Homo sapiens) [MS4A1-H3, reference compound]”, the “Concentration of peptide that induces 20% of HLA-A2 expression” value amounted to 4.83 µM.
“SLFLGILSV (listed as Homo sapiens) [MS4A1-H5, reference compound]”: the “mean relative fluorescence intensity of T2 cells” value is 0 (peptide 0.1 (μM)), 1.8 (peptide 1 (μM)) and 6.5 (peptide 10 (μM)).
For YVFEHPELL [CD22-B11], the “Concentration of peptide that induces 20% of HLA-A2 expression” value was 0.2 µM.
